Reference: US20250027068
Changes are numbered by the printed parent chain.

B1: PRT-581 (protein)
chain: MANQEIRYSKATPKTITSVWTKGVTPPENFIYNEDVLHAPYLANQGWYDITKTFNGKDDLLCGAATAGNMLHWWFDQNKEQIERYLKEHPEKQKINFNGEQMFDVKEAIDTKDSQTNSKLFEYFKDKAFPYLSTKHLGVFPDHVIDMFINGYRLSLTNHGPTPVKEQTKDPRGGIFDAVFTRGDQSKLLTSRHDFKEKTLNEISDLIKQELTEGKALGLSHTYANVRINHVINLWGADFDAEGNLEAIYVTDSDSNASIGMKKYYVGVNSAGKVAISAKEIEGDNIGAQVLGLFTLSTGKDIWEQTNLEHHHHHH
B2: PRT-255 (protein)
chain: MVTSVWTKGVTPPTNFTYGEDVLHAPYVANQGWYDITKTFNGKDDLLCGAATAGNMLHWWFDQNKEQIENYLKKHPEKQKINFNGEQMFDVKEAIDTKDSQLDSKLFEYFLEKAFPNLSTKHLGVFPDHVIDMFINGYRLSLLNHGPTPVKRGSKDPRGGIFDAVFTRGDQSKLLTNRHDFKEKTLKEISDLIKQELTEGKALGISHTYANVGINHVINLWGADFDAEGNLEAIAVTDSDSNASIGMKKYFVGVNSSGKVAISAKEIEEDNIGAQVLGLFTLSTGQDIWNQTN
B3: PRT-263 (protein)
chain: B2 chain with T39L, D45N, M88L, P157K, D170V, V212G, G213R, S241T
B4: PRT-528 (protein)
chain: MANQEIRYSEETPKTITSVWTKGVTPPTDFIQNEDVLHAPYIANQGWYDITKTFNGKDDLLCGAATAGNMLHWWFDQNKEEIENYLKKHPEKQKINFNGEQMFDVKEAIDTKDSQTDSALFEYFKDKAFPNLSTKHLGVMPDLVLDMFINGYYLSLGKHGPTPVKRGTKDPRGGIFDAVFTRGDQSKLLTARHDFKEKTLNEISDLIKQELTEGKALALSHTYANVRINHVINLWGADFNSEGNLEAIYVTDSDSNASIGMKKYYVGVNAAGKVAISAKEIEGDNIGAQVLGLFTLSTGQDIWEQTNLEHHHHHH
B5: PRT-555 (protein)
chain: MANQEIRYSEETPKTITSVWTKGVTPPTDFIKNEDVLHAPYVANQGWYDITKTFNGKDDLLCGAATAGNMLHWWFDQNKEEIERYLKKHPEKQKINFNGEQMFDVKEAIDTKDSQTDSKLFEYFKDKAFPYLSTKHLGVFPDHVIDMFINGYRLSLTNHGPTPVKRGTKDPRGGIFDAVFTRGDQSKLLTSRHDFKEKTLNEISDLIKQELQEGKALGLSHTYANVRINHVINLWGADFDSEGNLEAIYVTDSDSNASIGMKKYYVGVNSAGKVAISAKEIEDDNIGAQVLGLFTLSTGKDIWEQTNLEHHHHHH
B6: PRT-574 (protein)
chain: B1 chain with K10E, A11E, E28T, N29D, L42I, E88K
B7: PRT-580 (protein)
chain: B5 chain with L37F, D117N, N201K
B8: PRT-575 (protein)
chain: B1 chain with K10E, A11E, E28T, N29D, L42I, E88K, N201K
B9: PRT-538 (protein)
chain: MANQEIRYSSDSEWANKKVWVYGITPPEEGAWKYSTYYLPWKKEYGWYDCNKRNPTADGMMCWAATASNLLHWWIAQNKEYIDLYGDKYKGPDKINFNGEQMFDVKEYIDPLDKPQESDIFQCFIDKSFADLSTKHEAGYGDEGINWFIHGIIPSSPAHGPTPVKLRKPYNPAGYFKDVFPRGDGVKLLSNNGDFKELGKERFNETIKDALKNKKGIGLSIGPVNVRSGHVVTMWGAEFDENGDVSYIYIADNNDRWGVGCIRYQIVYEEGGTYTCYKTEIINEDRPIPINRLVTLELGEEYWKQTNLEHHHHHH
B10: PRT-247 (protein)
chain: MVTSVWTKGVTPPANFTQGEDVFHAPYVANQGWYDITKLFNGKDDLLCGAATAGNMLHWWFDQNKDQIKRYLEEHPEKQKINFNGEQMFDVKEAIDTKNHQLDSKLFEYFLEKAFPYLSTKHLGVFPDHVIDMFINGYRLSLTNHGPTPVKEGSKDPRGGIFDAVFTRGDQSKLLTSRHDFKEKNLKEISDLIKKELTEGKALGLSHTYANVRINHVINLWGADFDSNGNLKAIAVTDSDSNASIGMKKYFVGVNSSGKVAISAKEIKEDNIGAQVLGLFTLSTGQDSWNQTN
B11: PRT-541 (protein)
chain: MANQEIRYSKNENPNVTIKWVHGIGEPTQAEKEKIEFWWYETTTTKFFNNRKVDHLGDGNQCWAKTDSNMLHWWFVQNEENINQYIAKKNITGKINFNGEQMFDVKEGIDDNQEKEKSYIANTFRTKKAHNLSTKHKGDYIINGLSWYLYGLNNFKIAHGPTPVKKKPKFYGPALFKDVFSRGDGNTPIIVETDFKEYTKKEFEDTLSAALDSKKAIGINIYGSNVDYQHAITLWGAAFDEEENIIAIYVVDNNFKFENRIFPYGIWYQKEGRPYLFNYEINSFVKNRYVGEVTTLDKGEAQWQETNLEHHHHHH
B12: PRT-271 (protein)
chain: MVTSVWTKGVTPPTDFIYGEDVLHAPYKAGQGWYDITKLFNGKDDLLCGAATAGNMLHWWFDQNKEQIENYLKKHPEKQKINFNGEQMFDVKEAIDTKDSQLDSKLFDYFKEKAFPYLSTKHLGVFPDHVIDMFINGYRLSLTNHGPTPVKRGSKDPRGGIFDAVFTRGDQSKLLTNRHDLKNKTLKEISDLIKQELTEGKALGISHTYANVRINHVINLWGADFDAEGNLEAIYVTDSDSNPSIGMKKYFVGVNSSGKVAISAKEIEEDNIGAQVLGLFTLSTGQDIWNQTN
B13: PRT-556 (protein)
chain: MANQEIRYSKAKPKVITSVWTKGVTPPTQFTYNEDVFHAPYLPNQGWYDITKTFNGKDDLLCGAATAGNMLHWWFDQNKEQIERYLKEHPEKQKINFNGEQMFDVKEAIDTKDSQTNSKLFNYFKDKAFPYLSTKHLGVFPDHVIDMFINGYRLSLTNHGPTPVKEQNKDPRGGIFDDVFTRGDQSKLLTSRHDFKEKTLKEISDLIKQELKEGKALGLSHTYANVRINHVINLWGADFDAEGNLVAIYVTDSDSNASIGMKKYYVGVNSAGKVAISAKEIEDDNIGAQVLGLFTLSTGKDIWEKTNLEHHHHHH
B14: PRT-567 (protein)
chain: MANQEIRYSEETPSTITSVWTKGVTPPTDFIQNEDVLHAPYIANQGWYDITKTFNGKDDLLCGAATAGNMLHWWFDQNKEQIENYLKKHPEKQKINFNGEQMFDVKEAIDTKDSQTDSALFEYFKDKAFPYLSTKHLGVFPDHVIDMFINGYRLSLTNHGPTPVKRGTKDPRGGIFDAVFTRGDQSKLLTSRHDFKEKTLNEISDLIKQELTEGKALGLSHTYANVRINHVINLWGADFNAEGNLEAIYVTDSDSNASIGMKKYYVGVNSAGKVAISAKEIEGDNIGAQVLGLFTLSTGQDIWNQTNLEHHHHHH
B15: PRT-573 (protein)
chain: B14 chain with D29Q, E122S, G167Q, D205Q, N304Q
B16: PRT-561 (protein)
chain: B14 chain with D29Q, Q32Y, L37F, A119K, E122N, G167Q, N240D, N304Q
B17: PRT-599 (protein)
chain: B14 chain with E282K

Target: pooled human IgG (human IgG1, 2, 3 and 4)

| Protein | Enzyme Activity Endpoint Assay: Fab′2 [ng/µL] | Enzyme Activity Endpoint Assay: Fc [ng/µL] | Enzyme Activity Endpoint Assay: IgG [ng/µL] | Enzyme Activity Endpoint Assay: scIgG [ng/µL] |
| --- | --- | --- | --- | --- |
| B1 | 660 | 365 | 0 | 0 |
| B2 | 58 | 178 | 75 | 525 |
| B3 | 0 | 27 | 986 | 0 |
| B4 | 14 | 114 | 354 | 691 |
| B5 | 670 | 475 | 0 | 0 |
| B6 | 660 | 357 | 0 | 227 |
| B7 | 566 | 282 | 0 | 0 |
| B8 | 254 | 309 | 94 | 607 |
| B9 | 5 | 0 | 1160 | 0 |
| B10 | 0 | 81 | 308 | 279 |
| B11 | 0 | 0 | 854 | 3 |
| B12 | 563 | 322 | 0 | 0 |
| B13 | 570 | 351 | 16 | 200 |
| B14 | 385 | 297 | 65 | 372 |
| B15 | 759 | 409 | 0 | 0 |
| B16 | 606 | 405 | 0 | 0 |
| B17 | 930 | 310 | 0 | 0 |
